Reference: PMC3433420
“And” between values parts separate entries of the source, which are not always exact repeats. Identical values can stand only once. Each block holds one substance with its values, some of them ahead of it.

Key:
[1] = target: ITK SH2 domain (human) (UniProt Q08881); experiment: peptide or protein array; SH2/PTB proteins spotted on aldehyde slides, rhodamine peptide titrated in buffer B (20 mM HEPES, 100 mM KCl, 0.1% Tween-20, 5 mM DTT, pH 7.8), 1 h at room temperature; replicate assays
Chain of ITK SH2 domain (human) (Q08881 239-338): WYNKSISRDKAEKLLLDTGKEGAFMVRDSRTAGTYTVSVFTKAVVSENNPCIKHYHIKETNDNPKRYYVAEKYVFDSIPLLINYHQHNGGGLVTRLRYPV

[2] = target: SH2D1A SH2 domain (human) (UniProt O60880); experiment: as above
Chain of SH2D1A SH2 domain (human) (O60880 6-104): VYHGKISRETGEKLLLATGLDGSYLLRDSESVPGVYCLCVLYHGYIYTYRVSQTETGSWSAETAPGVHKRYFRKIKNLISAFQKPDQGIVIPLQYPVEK

[3] = target: ZAP70 tandem SH2 domains (human); experiment: as above
[4] = target: HCK SH2 domain (human) (UniProt P08631); experiment: as above
Chain of HCK SH2 domain (human) (P08631 144-241): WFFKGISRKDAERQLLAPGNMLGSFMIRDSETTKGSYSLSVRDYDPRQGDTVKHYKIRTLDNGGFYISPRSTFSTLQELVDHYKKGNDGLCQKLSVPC

[5] = target: GRAP2 SH2 domain (human) (UniProt O75791); experiment: as above
Chain of GRAP2 SH2 domain (human) (O75791 58-149): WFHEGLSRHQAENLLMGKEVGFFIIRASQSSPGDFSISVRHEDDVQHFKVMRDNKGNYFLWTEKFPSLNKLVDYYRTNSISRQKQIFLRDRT

[6] = target: SRC SH2 domain (human) (UniProt P12931); experiment: as above
[7] = target: SYK C-terminal SH2 domain (human); experiment: as above
[8] = target: BLNK SH2 domain (human) (UniProt Q8WV28); experiment: as above
Chain of BLNK SH2 domain (human) (Q8WV28 346-453): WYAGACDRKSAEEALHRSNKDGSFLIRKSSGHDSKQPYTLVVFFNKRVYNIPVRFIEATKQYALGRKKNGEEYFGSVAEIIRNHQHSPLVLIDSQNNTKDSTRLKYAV

[9] = target: SYK tandem SH2 domains (human); experiment: as above
[10] = target: ZAP70 C-terminal SH2 domain (human) (UniProt P43403); experiment: as above
Chain of ZAP70 C-terminal SH2 domain (human) (P43403 whole entry, the tested form may be a part): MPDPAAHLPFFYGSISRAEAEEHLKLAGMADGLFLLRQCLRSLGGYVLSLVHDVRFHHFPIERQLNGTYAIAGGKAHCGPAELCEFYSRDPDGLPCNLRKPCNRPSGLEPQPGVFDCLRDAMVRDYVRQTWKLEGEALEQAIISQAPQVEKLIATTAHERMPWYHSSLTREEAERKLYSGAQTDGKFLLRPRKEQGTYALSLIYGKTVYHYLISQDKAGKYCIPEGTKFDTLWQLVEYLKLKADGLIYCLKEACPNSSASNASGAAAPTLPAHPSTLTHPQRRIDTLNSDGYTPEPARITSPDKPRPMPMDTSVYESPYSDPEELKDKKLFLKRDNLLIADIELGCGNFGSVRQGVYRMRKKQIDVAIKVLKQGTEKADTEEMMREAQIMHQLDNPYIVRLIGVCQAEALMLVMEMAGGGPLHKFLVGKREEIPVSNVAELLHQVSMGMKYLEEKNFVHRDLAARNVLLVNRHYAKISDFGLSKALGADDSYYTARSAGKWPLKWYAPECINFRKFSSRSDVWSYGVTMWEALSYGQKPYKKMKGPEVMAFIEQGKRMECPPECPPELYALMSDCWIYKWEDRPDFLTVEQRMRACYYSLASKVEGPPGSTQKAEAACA

[11] = target: LCK SH2 domain (human) (UniProt P06239); experiment: as above
Chain of LCK SH2 domain (human) (P06239 127-224): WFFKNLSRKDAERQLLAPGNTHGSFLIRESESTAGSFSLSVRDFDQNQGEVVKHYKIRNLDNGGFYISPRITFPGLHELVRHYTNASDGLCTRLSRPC

[12] = target: TNS3 SH2 domain (human) (UniProt Q68CZ2); experiment: as above
Chain of TNS3 SH2 domain (human) (Q68CZ2 1172-1282): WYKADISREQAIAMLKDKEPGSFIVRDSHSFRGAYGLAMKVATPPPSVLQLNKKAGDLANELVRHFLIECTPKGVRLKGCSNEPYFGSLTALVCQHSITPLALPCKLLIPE

[13] = target: SH2D3A SH2 domain (human) (UniProt Q9BRG2); experiment: as above
Chain of SH2D3A SH2 domain (human) (Q9BRG2 15-114): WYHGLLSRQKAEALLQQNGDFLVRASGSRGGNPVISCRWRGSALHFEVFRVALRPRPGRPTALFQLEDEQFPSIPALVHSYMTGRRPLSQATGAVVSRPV

[14] = target: VAV1 (Homo sapiens) (UniProt P15498); details: cited from earlier work
Chain of VAV1 (Homo sapiens) (P15498 666-770): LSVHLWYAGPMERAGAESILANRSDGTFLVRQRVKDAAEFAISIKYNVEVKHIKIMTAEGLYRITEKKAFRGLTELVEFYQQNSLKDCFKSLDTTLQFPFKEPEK

[15] = target: GRB7 (Homo sapiens) (UniProt Q14451); details: cited from earlier work
Chain of GRB7 (Homo sapiens) (Q14451 426-532): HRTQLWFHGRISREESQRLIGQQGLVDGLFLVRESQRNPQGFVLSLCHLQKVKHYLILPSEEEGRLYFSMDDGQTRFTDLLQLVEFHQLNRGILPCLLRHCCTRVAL

[16] = target: PIK3R2-NC (Homo sapiens) (UniProt O00459); details: cited from earlier work
Chain of PIK3R2-NC (Homo sapiens) (O00459 325-721): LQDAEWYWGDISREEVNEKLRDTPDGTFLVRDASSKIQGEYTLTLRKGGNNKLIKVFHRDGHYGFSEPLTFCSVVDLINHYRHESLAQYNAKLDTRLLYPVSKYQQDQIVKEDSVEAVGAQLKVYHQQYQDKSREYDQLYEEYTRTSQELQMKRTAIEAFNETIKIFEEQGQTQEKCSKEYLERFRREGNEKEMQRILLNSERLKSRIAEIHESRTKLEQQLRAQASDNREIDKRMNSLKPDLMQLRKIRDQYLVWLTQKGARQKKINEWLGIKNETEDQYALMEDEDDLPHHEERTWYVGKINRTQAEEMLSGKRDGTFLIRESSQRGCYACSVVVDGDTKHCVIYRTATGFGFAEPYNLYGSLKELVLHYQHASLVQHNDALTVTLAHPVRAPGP

[17] = target: SH2D1B (Homo sapiens) (UniProt O14796); details: cited from earlier work
Chain of SH2D1B (Homo sapiens) (O14796 1-106): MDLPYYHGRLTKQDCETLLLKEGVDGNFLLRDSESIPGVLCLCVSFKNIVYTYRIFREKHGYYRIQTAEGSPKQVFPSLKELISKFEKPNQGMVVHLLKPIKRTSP

[18] = target: TNS4 (Homo sapiens) (UniProt Q8IZW8); details: cited from earlier work
Chain of TNS4 (Homo sapiens) (Q8IZW8 444-561): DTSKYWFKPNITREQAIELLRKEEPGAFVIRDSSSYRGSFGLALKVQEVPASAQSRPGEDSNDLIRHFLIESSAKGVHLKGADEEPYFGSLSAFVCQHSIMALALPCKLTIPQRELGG

[19] = target: VAV2 (Homo sapiens) (UniProt P52735); details: cited from earlier work
Chain of VAV2 (Homo sapiens) (P52735 668-772): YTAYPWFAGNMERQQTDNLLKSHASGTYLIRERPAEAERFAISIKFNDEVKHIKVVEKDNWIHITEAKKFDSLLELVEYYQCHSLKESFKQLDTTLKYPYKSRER

[20] = target: BCAR3 (Homo sapiens) (UniProt O75815); details: cited from earlier work
Chain of BCAR3 (Homo sapiens) (O75815 149-258): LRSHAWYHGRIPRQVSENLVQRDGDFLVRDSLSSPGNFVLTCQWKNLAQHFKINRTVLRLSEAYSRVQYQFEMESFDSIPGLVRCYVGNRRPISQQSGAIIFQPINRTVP

[21] = target: SH2B3 (Homo sapiens) (UniProt Q9UQQ2); details: cited from earlier work
Chain of SH2B3 (Homo sapiens) (Q9UQQ2 359-467): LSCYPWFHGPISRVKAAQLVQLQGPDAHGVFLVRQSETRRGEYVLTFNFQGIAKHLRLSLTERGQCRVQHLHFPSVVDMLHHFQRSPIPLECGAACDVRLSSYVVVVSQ

[22] = target: PLCG1-NC (Homo sapiens) (UniProt P19174); details: cited from earlier work
Chain of PLCG1-NC (Homo sapiens) (P19174 545-761): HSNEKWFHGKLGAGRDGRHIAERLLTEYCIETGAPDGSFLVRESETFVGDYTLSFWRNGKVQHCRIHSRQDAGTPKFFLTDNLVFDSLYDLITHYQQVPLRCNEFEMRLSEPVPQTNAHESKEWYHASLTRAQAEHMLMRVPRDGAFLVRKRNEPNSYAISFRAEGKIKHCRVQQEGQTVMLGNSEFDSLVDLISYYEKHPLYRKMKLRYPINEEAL

[23] = target: SRC (Homo sapiens) (UniProt P12931); details: cited from earlier work

Kd [1]: 0.401 µM and 0.802 µM | Kd [2]: 0.413 µM and 0.591 µM | Kd [3]: 2.71 µM and 1.63 µM | Kd [4]: 0.827 µM | Kd [5]: 0.808 µM and 1.36 µM | Kd [6]: 0.403 µM and 2.1 µM | Kd [7]: 0.408 µM | Kd [8]: 1.64 µM | Kd [9]: 0.164 µM and 0.649 µM | Kd [10]: 0.588 µM | Kd [11]: 0.214 µM and 0.375 µM | Kd [12]: 0.373 µM and 0.742 µM | Kd [13]: 0.177 µM and 0.402 µM
Substance: ErbB4 pY1262 phosphopeptide, rhodamine-labelled, for protein microarrays

Substance: …pYWDQDPPE
apparent Kd (screen) [14]: 2 µM | apparent Kd (screen) [15]: 2 µM | apparent Kd (screen) [16]: 2 µM | apparent Kd (screen) [17]: 2 µM

Substance: …pYEEMRAFQ
apparent Kd (screen) [18]: 1.95 µM | apparent Kd (screen) [19]: 2 µM | apparent Kd (screen) [20]: 2 µM | apparent Kd (screen) [21]: 1.52 µM

Substance: …pYLVPQQGF
apparent Kd (screen) [22]: 2 µM | apparent Kd (screen) [23]: 0.757 µM
